The values below come from patent US7816499B2, “Antibodies that selectively bind HDAC9” (Sloan-Kettering Institute for Cancer Research, priority 2001, dated 2010).

Data set [1] has as its target T1, HDAC9a-FLAG (Homo sapiens, UniProt Q9UKV0). Kind of data set: HDAC enzymatic assay, 3H-acetic acid released from 3H-histones. Format: biochemical. The arrangement: made in house; host or cells: human kidney 293T cells, transient transfection, anti-FLAG M2 agarose immunoprecipitation, elution with FLAG peptide. Conditions: 3H-histones substrate; SAHA 2 μM (FIG. 8); preincubated 30 minutes at 4° C. As to the method: The reaction was stopped by the addition of 1M HCl/0.1 acetic acid. Released ^3H-acetic acid was extracted with ethyl acetate and quantified by scintillation counting. For inhibition studies, the immunoprecipitated complexes were preincubated with the different HDAC inhibitors for 30 minutes at 4° C.

The target of another data set is HDAC9-FLAG (Homo sapiens, UniProt Q9UKV0). To be noted: FLUOR DE LYS substrate; TSA 1 μM (FIG. 7), preincubated 15 minutes at room temperature; SAHA concentration not given.
For data set [2], the target named is T1, HDAC9a-FLAG. To be noted: FLUOR DE LYS substrate; TSA 1 μM (FIG. 7), preincubated 15 minutes at room temperature; SAHA concentration not given.
The next data set concerns MEF2. Briefly: Anti-FLAG immunoprecipitation and anti-MEF2 Western blot. Format: binding, human. Conditions: 293T cells, anti-FLAG IP, anti-MEF2 Western. On the procedure: The Xenopus homolog of HDRP, MITR, was identified as a MEF2 interacting transcriptional repressor (Sparrow et al., EMBO J. 18:5085-5098(1999)) and mouse HDRP also interacts with and represses MEF2 mediated transcription (Zhang et al., J. Biol. Chem. 276:35-39 (2001)). […] 293 cells were transfected with vector, HDAC9-FLAG, or HDAC9a-FLAG. […] Western blot analysis of the immunoprecipitated proteins was carried out, using anti-MEF-2 antibody to probe the blot.
(A western blot detects proteins with antibodies after separation by electrophoresis.)

The nature of data set [3]: HDAC enzymatic activity of immunoprecipitated HDAC9/HDAC9a compared with HDAC4. Conditions: comparable amount of protein; immunoprecipitated from 293T cells. Format: biochemical.
Data set [4] relates to MEF2C mediated transcriptional activation. Briefly: p3XMEF2-luciferase reporter assay in 293T cells. It counts as cell-based, human. Conditions: p3XMEF2-Luc; for repression of MEF2C mediated transcriptional activation: 1 ng, 10 ng, or 100 ng of plasmid; for MEF2C mediated transcriptional activation at the 100 ng dose: 100 ng plasmid. As to the method: It was then determined whether HDAC9 and HDAC9a repress MEF2-mediated transcription. This determination was carried out as follows. The p3XMEF2-luciferase reporter gene (100 ng) and the vector pRL-TK (Promega) (5 ng) were co-transfected into 293T cells in the absence (pcDNA3 empty vector) or presence of MEF2C (100 ng of pCMV-MEF2C). HDAC9-F (1 ng, 10 ng, or 100 ng of pFLAG-HDAC9; pFLAG-HDAC9 and HDAC9-FLAG are different constructs, with the FLAG sequence located at opposite ends of the HDAC9 nucleotide, but are functionally equivalent) or HDAC9a-F (1 ng, 10 ng, or 100 ng of pFLAG-HDAC9a; pFLAG-HDAC9a and HDAC9a-FLAG are different constructs, with the FLAG sequence located at opposite ends of the HDAC9a nucleotide, but are functionally equivalent) was included in a subset of experimental groups with the MEF2C vector. pFLAG empty vector was used to adjust the DNA to an equal amount in each transfection. The cells were harvested 24 to 36 hours after transfection and the luciferase activities were measured using the Dual-Luciferase™ Reporter Assay System from Promega according to the manufacturer's instruction. The firefly luciferase activity was first normalized to the co-transfected Renilla luciferase activity (encoded by the pRL-TK vector), and the luciferase activity value for cells transfected with MEF2C alone was set at 1. MEF2C activated transcription over 30 times the basal level of transcription. […] The transcriptional repression effect of HDAC9 and HDAC9a on MEF2C mediated transcription was a specific effect since a co-transfected reporter gene for transfection efficiency containing a TK promoter was not repressed by HDAC9 or HDAC9a.
A general note: A reporter such as luciferase makes a cellular process visible.

Protocol for HDAC9-FLAG: Cells were harvested 24 to 48 hours after transfection and lysed in IP lysis buffer (50 mM Tris HCl, pH 7.5/120 mM NaCl/5 mM EDTA/0.5% NP-40) at 5×10^7 cells per ml. Immunoprecipitation with anti-FLAG M2-agarose (Sigma, St. Louis, Mo.) was performed according to the manufacturer's instructions. Immunoprecipitated proteins were released from the agarose beads by using FLAG-peptide and either used directly for HDAC enzymatic activity assays or resolved on SDS/PAGE for Western blot analyses.
HDAC9 and HDAC9a enzymatic activity were assessed with the HDAC Fluorescent Activity Assay/Drug Discovery Kit-AK-500 (BIOMOL Research Laboratories) using a FLUOR DE LYS™ that contains an acetylated lysine side chain as a substrate and immunoprecipitated HDAC9-FLAG and HDAC9a-FLAG polypeptides according to the manufacturer's instruction and a SPECTRAmax® GEMINI XS microplate spectrofluorometer using the SOFTmax® PRO system (Molecular Devices) at excitation 355 nm and emission 460 nm with a cut off filter of 455 nm. Briefly, HDAC9-FLAG and HDAC9a-FLAG were incubated with the substrate overnight at room temperature in a 96-well plate. The reaction was stopped by addition of Fluor De Lys™ Developer and samples were read with the fluorometer. […]

For `O=C(CCCCCCC(=O)Nc1ccccc1)NO` [SAHA, suberoylanilide hydroxamic acid], the “inhibition of histone deacetylase activity of HDAC9a-FLAG” value on HDAC9a-FLAG [1] is “completely inhibited”. Besides, the “inhibition of HDAC9 deacetylase activity” value against HDAC9-FLAG is listed as “completely inhibited”. In addition, the “inhibition of HDAC9a deacetylase activity” value against HDAC9a-FLAG [2] is recorded as “completely inhibited”.

B1: HDAC9a: alternatively spliced isoform of HDAC9, 879 amino acids (SEQ ID NO: 4); tested as FLAG-tagged protein (protein, listed as Homo sapiens)
chain: MHSMISSVDVKSEVPVGLEPISPLDLRTDLRMMMPVVDPVVREKQLQQELLLIQQQQQIQKQLLIAEFQKQHENLTRQHQAQLQEHIKELLAIKQQQELLEKEQKLEQQRQEQEVERHRREQQLPPLRGKDRGRERAVASTEVKQKLQEFLLSKSATKDTPTNGKNHSVSRHPKLWYTAAHHTSLDQSSPPLSGTSPSYKYTLPGAQDAKDDFPLRKTASEPNLKVRSRLKQKVAERRSSPLLRRKDGNVVTSFKKRMFEVTESSVSSSSPGSGPSSPNNGPTGSVTENETSVLPPTPHAEQMVSQQRILIHEDSMNLLSLYTSPSLPNITLGLPAVPSQLNASNSLKEKQKCETQTLRQGVPLPGQYGGSIPASSSHPHVTLEGKPPNSSHQALLQHLLLKEQMRQQKLLVAGGVPLHPQSPLATKERISPGIRGTHKLPRHRPLNRTQSAPLPQSTLAQLVIQQQHQQFLEKQKQYQQQIHMNKLLSKSIEQLKQPGSHLEEAEEELQGDQAMQEDRAPSSGNSTRSDSSACVDDTLGQVGAVKVKEEPVDSDEDAQIQEMESGEQAAFMQQPFLEPTHTRALSVRQAPLAAVGMDGLEKHRLVSRTHSSPAASVLPHPAMDRPLQPGSATGIAYDPLMLKHQCVCGNSTTHPEHAGRIQSIWSRLQETGLLNKCERIQGRKASLEEIQLVHSEHHSLLYGTNPLDGQKLDPRILLGDDSQKFFSSLPCGGLGVDSDTIWNELHSSGAARMAVGCVIELASKVASGELKNGFAVVRPPGHHAEESTAMGFCFFNSVAITAKYLRDQLNISKILIVDLDVHHGNGTQQAFYADPSILYISLHRYDEGNFFPGSGAPNEVRFISLEPHFYLYLSGNCIA
modifications: FLAG tag
notes: tested as FLAG-tagged protein
For B1, in the data set with MEF2, the “interaction with MEF2” value is reported as “interacted with MEF2”. In addition, the “HDAC activity relative to the deacetylase activity of HDAC4” value in data set [3] is “about ten times lower”. In data set [4], the “repression of MEF2C mediated transcriptional activation” value is “in a dose-dependent manner” and the “MEF2C mediated transcriptional activation at the 100 ng dose” value is on record as “completely abolished”.

B2: HDAC9: novel class II histone deacetylase, 1011 amino acids (SEQ ID NO: 2); tested as FLAG-tagged protein (protein, listed as Homo sapiens)
chain: MHSMISSVDVKSEVPVGLEPISPLDLRTDLRMMMPVVDPVVREKQLQQELLLIQQQQQIQKQLLIAEFQKQHENLTRQHQAQLQEHIKELLAIKQQQELLEKEQKLEQQRQEQEVERHRREQQLPPLRGKDRGRERAVASTEVKQKLQEFLLSKSATKDTPTNGKNHSVSRHPKLWYTAAHHTSLDQSSPPLSGTSPSYKYTLPGAQDAKDDFPLRKTASEPNLKVRSRLKQKVAERRSSPLLRRKDGNVVTSFKKRMFEVTESSVSSSSPGSGPSSPNNGPTGSVTENETSVLPPTPHAEQMVSQQRILIHEDSMNLLSLYTSPSLPNITLGLPAVPSQLNASNSLKEKQKCETQTLRQGVPLPGQYGGSIPASSSHPHVTLEGKPPNSSHQALLQHLLLKEQMRQQKLLVAGGVPLHPQSPLATKERISPGIRGTHKLPRHRPLNRTQSAPLPQSTLAQLVIQQQHQQFLEKQKQYQQQIHMNKLLSKSIEQLKQPGSHLEEAEEELQGDQAMQEDRAPSSGNSTRSDSSACVDDTLGQVGAVKVKEEPVDSDEDAQIQEMESGEQAAFMQQPFLEPTHTRALSVRQAPLAAVGMDGLEKHRLVSRTHSSPAASVLPHPAMDRPLQPGSATGIAYDPLMLKHQCVCGNSTTHPEHAGRIQSIWSRLQETGLLNKCERIQGRKASLEEIQLVHSEHHSLLYGTNPLDGQKLDPRILLGDDSQKFFSSLPCGGLGVDSDTIWNELHSSGAARMAVGCVIELASKVASGELKNGFAVVRPPGHHAEESTAMGFCFFNSVAITAKYLRDQLNISKILIVDLDVHHGNGTQQAFYADPSILYISLHRYDEGNFFPGSGAPNEVGTGLGEGYNINIAWTGGLDPPMGDVEYLEAFRTIVKPVAKEFDPDMVLVSAGFDALEGHTPPLGGYKVTAKCFGHLTKQLMTLADGRVVLALEGGHDLTAICDASEACVNALLGNELEPLAEDILHQSPNMNAVISLQKIIEIQSMSLKFS
modifications: FLAG tag
notes: tested as FLAG-tagged protein
As for B2, in the data set on MEF2, the “interaction with MEF2” value is given as “interacted with MEF2”. For the same molecule, the “HDAC activity relative to the deacetylase activity of HDAC4” value in data set [3] is reported as “about ten times lower”. Also, in data set [4], the “repression of MEF2C mediated transcriptional activation” value is on record as “in a dose-dependent manner” and the “MEF2C mediated transcriptional activation at the 100 ng dose” value is recorded as “completely abolished”.
